Experiment [1] deals with T1, soluble hFKN-SEAP (extracellular region of human fractalkine conjugated to secreted alkaline phosphatase) (human, UniProt P78423 25-341).
T1 construct: Used as culture supernatant of HEK293E cells; also called soluble FKN conjugated to SEAP; not shown: secreted alkaline phosphatase (SEAP) from the vector pcDNA3.1 (+) dSalI SEAP
T1 sequence: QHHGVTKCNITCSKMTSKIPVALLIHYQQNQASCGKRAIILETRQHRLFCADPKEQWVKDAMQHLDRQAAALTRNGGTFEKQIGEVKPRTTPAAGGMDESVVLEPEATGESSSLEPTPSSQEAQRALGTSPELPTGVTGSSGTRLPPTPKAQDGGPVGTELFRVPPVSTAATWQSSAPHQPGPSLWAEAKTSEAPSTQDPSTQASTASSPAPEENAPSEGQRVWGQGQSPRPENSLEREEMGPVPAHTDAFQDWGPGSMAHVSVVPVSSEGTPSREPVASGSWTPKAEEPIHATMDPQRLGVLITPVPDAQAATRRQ
In words: BIACORE, mAb captured on Protein-A/G, soluble FKN-SEAP as analyte (also ELISA on captured hFKN-SEAP). How it is done:
(§1) BIACORE® assays were performed as follows. Recombinant Protein-A/G (Pierce Chemical) was immobilized on BIACORE® sensor chips (CM5) that were pre-activated with amine coupling reagents (GE Healthcare). Purified mAbs were added into the sensor chips at a concentration of 0.2 μg/ml. Soluble antigens (soluble FKN conjugated to secreted alkaline phosphatase (SEAP) or control SEAP proteins) were added into the sensor chips at various concentrations (0 to 200 nM). Association of added antigens with mAbs captured on the sensor chips was monitored continuously, and the relative binding response of the antigens was determined using a BIACORE® A100 system (GE Healthcare).
ELISAs were performed as follows. Polyclonal anti-rabbit IgG antibody (Jackson ImmunoResearch Laboratories, Catalog No. 711-005-152) was coated on the wells of a 96-well plate (Nunc, Catalog No. 442402). After overnight incubation at 4° C., the wells were blocked with 1× Block-Ace (DainipponPharma) for 1 hour at room temperature. After washing three times with 0.05% Tween 20/PBS, 10 nM rabbit polyclonal anti-PLAP antibody (Biomeda) was added to the wells (50 μl/well). […] An equal volume of stopping solution (2 M H₂SO₄) was added to the wells and the optical density at 450 nm was read by a microplate reader (Arvo, PerkinElmer).

Experiment [2] concerns the target T1, soluble hFKN-SEAP (extracellular region …). The experiment in a line: BIACORE, mAb captured by anti-human IgG, FKN-SEAP as analyte. The protocol:
as §1
The BIACORE® assays were performed as described above. However, for humanized and chimeric mAbs, anti-human IgG mouse mAb (GE Healthcare) was used as the capturing antibody on the sensor chip.
A general note: In SPR one partner is held on a chip, and binding of the other changes the refractive index at the surface.

For experiment [3], the target named is T2, recombinant human FKN (R&D Systems, Catalog No. 362-CX/CF) (human, UniProt P78423 25-100).
T2 sequence: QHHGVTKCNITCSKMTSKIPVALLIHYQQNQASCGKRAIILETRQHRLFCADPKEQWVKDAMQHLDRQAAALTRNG
The experiment in a line: cell-based or functional assay.

Experiment [4] deals with T3, R68A mutated FKN-SEAP-His (human, UniProt P78423 25-340).
T3 construct: also called R68A mutant; not shown: The SEAP reporter, the residues encoded by the NotI junction and the C-terminal (His)10 tag
T3 sequence: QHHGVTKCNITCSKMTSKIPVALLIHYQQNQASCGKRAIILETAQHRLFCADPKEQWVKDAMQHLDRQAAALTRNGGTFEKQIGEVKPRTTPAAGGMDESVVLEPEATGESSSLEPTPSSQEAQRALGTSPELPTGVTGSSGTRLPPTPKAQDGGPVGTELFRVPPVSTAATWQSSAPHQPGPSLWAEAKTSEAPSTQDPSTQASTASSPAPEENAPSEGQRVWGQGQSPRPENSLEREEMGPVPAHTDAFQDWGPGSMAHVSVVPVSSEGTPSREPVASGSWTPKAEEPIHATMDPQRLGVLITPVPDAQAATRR
The experiment in a line: sandwich ELISA, H3-2L4 coated, mutant hFKN-SEAP added, alkaline phosphatase read at 405 nm. The protocol: Mouse anti-human FKN monoclonal antibodies (1F3, 1G1, 2B2, 3D5, 6D1, 7F6) and H3-2L4 antibody were coated on an ELISA plate (Nunc) overnight at 4° C. The antibody solutions were removed. PBS solution containing 1% BSA was added to each well and incubated for 1 hour at room temperature, and the wells were washed with Tris-buffered saline (pH 7.4) containing 0.05% Tween 20. The wild type and R68A mutated FKN-SEAP-His solution (1, 0.5, 0.25, 0.125 nM) were added to the wells and incubated for 2 hours at room temperature. The antigen solutions were removed and washed with washing solution. p-Nitrophenyl phosphate solution (Thermo Scientific) was added to each well and incubated for 30 minutes at room temperature. The reaction was terminated with 1N NaOH solution and absorbance at 405 nm was measured.

B1: mouse anti-hFKN mAb clone 3A5-2 (antibody, mouse IgG2a, V domains shown)
VH: QVQLQQSGPELVKPGASVKMSCKASGYTFTNYYIHWVKQRPGQGLEWIGWIYPGDGSPKFNERFKGKTTLTADKSSNTAYMLLSSLTSEDSAIYFCATGPTDGDYFDYWGQGTTLTVSS
VL: DIQMTQSPASLSASVGETVTITCRASGNIHNFLAWYQQKQGKSPQFLVYNEKTLADGVPSRFSGSGSGTQYSLKINSLQPEDFGIYFCQQFWSTPYTFGGGTKLEIK
notes: Mouse monoclonal from hybridoma; Heavy chain was amplified with a mouse IgG2a CH3 primer and light chain with a mouse Ckappa primer; also called m3A5-2; m3A5-2 mAb
For the molecule B1, the binding result in experiment [1] is on record as “binds”.

B2: mouse-human chimeric 3A5-2 mAb (antibody, human IgG2, V domains shown)
VH: QVQLQQSGPELVKPGASVKMSCKASGYTFTNYYIHWVKQRPGQGLEWIGWIYPGDGSPKFNERFKGKTTLTADKSSNTAYMLLSSLTSEDSAIYFCATGPTDGDYFDYWGQGTTLTVSS
VL: DIQMTQSPASLSASVGETVTITCRASGNIHNFLAWYQQKQGKSPQFLVYNEKTLADGVPSRFSGSGSGTQYSLKINSLQPEDFGIYFCQQFWSTPYTFGGGTKLEIK
notes: also called chimeric mAb
B2: in experiment [2], the binding result was “binds”.

B3: humanized anti-hFKN mAb H3-2L4-IgG2 (antibody, V domains shown)
VH: QVQLVQSGAEVKKPGASVKVSCKASGYTFTNYYIHWVKQAPGQGLEWIGWIYPGDGSPKFNERFKGRTTLTADKSTNTAYMLLSSLRSEDTAVYFCATGPTDGDYFDYWGQGTTVTVSS
VL: DIQMTQSPSSLSASVGDRVTITCRASGNIHNFLAWYQQKPGKAPKLLIYNEKTLADGVPSRFSGSGSGTDYTLTISSLQPEDFATYFCQQFWSTPYTFGGGTKVEIK
notes: also called H3-2L4 antibody
On to B3, for which the “CTX (IC50, nM)” value in experiment [3] is 0.2 nM. The binding result in experiment [4] is recorded as “no binding (tested: 0.13 nM)”.

B4: humanized anti-hFKN mAb H3-L4-IgG2 (antibody, V domains shown)
VH: QVQLVQSGAEVKKPGASVKVSCKASGYTFTNYYIHWVKQAPGQGLEWIGWIYPGDGSPKFNERFKGRTTLTADKSTNTAYMLLSSLRSDDTAVYFCATGPTDGDYFDYWGQGTTVTVSS
VL: DIQMTQSPSSLSASVGDRVTITCRASGNIHNFLAWYQQKPGKAPKLLIYNEKTLADGVPSRFSGSGSGTDYTLTISSLQPEDFATYFCQQFWSTPYTFGGGTKVEIK
For the molecule B4, the binding result in experiment [2] is “binds”.

B5: humanized anti-hFKN mAb H3-2L2-IgG2 (antibody, V domains shown)
VH: QVQLVQSGAEVKKPGASVKVSCKASGYTFTNYYIHWVKQAPGQGLEWIGWIYPGDGSPKFNERFKGRTTLTADKSTNTAYMLLSSLRSEDTAVYFCATGPTDGDYFDYWGQGTTVTVSS
VL: DIQMTQSPSSLSASVGDRVTITCRASGNIHNFLAWYQQKPGKAPKFLVYNEKTLADGVPSRFSGSGSGTQYTLTISSLQPEDFATYFCQQFWSTPYTFGGGTKVEIK
As to B5, the binding result in experiment [2] was “binds”.

B6: humanized anti-hFKN mAb H3L2-IgG2 (antibody, V domains shown)
VH: QVQLVQSGAEVKKPGASVKVSCKASGYTFTNYYIHWVKQAPGQGLEWIGWIYPGDGSPKFNERFKGRTTLTADKSTNTAYMLLSSLRSDDTAVYFCATGPTDGDYFDYWGQGTTVTVSS
VL: DIQMTQSPSSLSASVGDRVTITCRASGNIHNFLAWYQQKPGKAPKFLVYNEKTLADGVPSRFSGSGSGTQYTLTISSLQPEDFATYFCQQFWSTPYTFGGGTKVEIK
On to B6, for which the binding result in experiment [2] is “binds”.

(Values after patent publication US20120213799A1 (EISAI R AND D MANAGEMENT, published 2012).)
